Reference: patent US20140235698A1, “RNA Aptamer Specifically Binding to Carcinoembryonic Antigen and Use thereof” (POSCO, published 2014)

How the values were obtained:
[1] = biological target: DR5 cloned in the pVP16 vector as an activation-domain fusion (UniProt O14763); experiment: cell-based or functional assay
[2] = biological target: T1, NCEA (CEA/CEACAM5 N domain to B3 domain) (Homo sapiens, UniProt P06731 P06731:35-675); experiment: SPR; Biacore 2000; GROUP I member tested not specified (SEQ 1-12); details: tags: pET28a(+), Ni-NTA (His), E. coli BL21
T1 sequence (P06731 35-675, one chain of several): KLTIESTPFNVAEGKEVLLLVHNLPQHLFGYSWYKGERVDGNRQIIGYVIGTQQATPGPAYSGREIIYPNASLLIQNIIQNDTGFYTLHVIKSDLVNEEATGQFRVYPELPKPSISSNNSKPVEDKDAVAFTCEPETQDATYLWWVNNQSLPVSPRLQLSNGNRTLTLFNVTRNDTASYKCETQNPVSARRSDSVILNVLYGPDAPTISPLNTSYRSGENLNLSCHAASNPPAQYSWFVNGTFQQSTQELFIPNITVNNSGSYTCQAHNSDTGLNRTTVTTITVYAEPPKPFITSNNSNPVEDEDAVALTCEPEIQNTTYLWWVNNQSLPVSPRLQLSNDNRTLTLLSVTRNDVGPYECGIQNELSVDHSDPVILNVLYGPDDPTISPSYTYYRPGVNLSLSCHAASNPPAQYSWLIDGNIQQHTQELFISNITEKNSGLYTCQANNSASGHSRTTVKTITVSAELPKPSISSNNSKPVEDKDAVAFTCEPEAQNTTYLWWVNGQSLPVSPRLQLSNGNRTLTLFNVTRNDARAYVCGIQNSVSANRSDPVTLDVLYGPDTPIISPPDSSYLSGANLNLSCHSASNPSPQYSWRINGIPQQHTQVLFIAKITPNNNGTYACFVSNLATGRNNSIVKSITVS
Method: (§1) To measure the affinity of RNA to CEA, SPR analysis was performed with Biacore 2000 (GE healthcare) device. Various concentrations of RNAs (GROUP 1, 2, 3 and library in FIG. 2) were flowed on NCEA and ACEA to measure the binding affinity.
(§2) The above value is measured using BIAevaluation program (which is used to analyze graph obtained from BIAcore device).

[3] = biological target: T2, ACEA (CEA/CEACAM5 A1 domain to B3 domain, N domain deleted) (Homo sapiens, UniProt P06731 P06731:145-675); experiment: as above; details: tags: pET28a(+), Ni-NTA (His), E. coli BL21
T2 sequence (P06731 145-675, stated change not applied, one chain of several): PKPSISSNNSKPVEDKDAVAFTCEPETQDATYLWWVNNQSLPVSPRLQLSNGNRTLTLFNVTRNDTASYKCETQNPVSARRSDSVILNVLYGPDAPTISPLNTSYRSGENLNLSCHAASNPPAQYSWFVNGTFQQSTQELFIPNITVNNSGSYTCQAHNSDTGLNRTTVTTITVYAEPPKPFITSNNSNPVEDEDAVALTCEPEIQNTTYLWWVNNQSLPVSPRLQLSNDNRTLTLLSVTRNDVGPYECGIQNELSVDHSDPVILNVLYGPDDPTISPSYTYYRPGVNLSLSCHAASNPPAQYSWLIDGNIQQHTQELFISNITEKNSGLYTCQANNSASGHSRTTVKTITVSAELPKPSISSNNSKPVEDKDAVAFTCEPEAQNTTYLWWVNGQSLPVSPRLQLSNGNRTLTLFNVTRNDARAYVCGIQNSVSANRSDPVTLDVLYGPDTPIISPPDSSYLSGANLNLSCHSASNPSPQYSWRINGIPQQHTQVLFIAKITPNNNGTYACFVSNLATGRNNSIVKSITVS
Method: as §1, §2

[4] = biological target: T1, NCEA (CEA/CEACAM5 N domain to B3 domain); experiment: SPR; Biacore 2000; loop mutant, weakened or no binding per text; details: tags: pET28a(+), Ni-NTA (His), E. coli BL21
Method: (§3) To measure the affinity of RNA aptamer to CEA, SPR analysis was performed with Biacore 2000 (GE healthcare) device. Various concentrations of RNAs (Trunc. GROUP 1-1 & 1-2 and Mutant GROUP 1-1 & 1-2, Loop-only, Library) were flowed on NCEA and ACEA to measure the binding affinity, which is shown in the following TABLE 4 and FIG. 4.

[5] = biological target: T2, ACEA (CEA/CEACAM5 A1 domain to B3 …); experiment: SPR; Biacore 2000; details: tags: pET28a(+), Ni-NTA (His), E. coli BL21
Method: as §3

[6] = biological target: T1, NCEA (CEA/CEACAM5 N domain to B3 domain); experiment: SPR; Biacore 2000; details: tags: pET28a(+), Ni-NTA (His), E. coli BL21; hairpin-loop (predicted)
Method: as §3

Work on “NCEA (protein consisting of N domain to B3 domain of CEA, CEACAM5) cloned in the pM vector as a GAL4 DNA-BD fusion (from UniProt P04386 1-147; P06731 35-676)” yielded an SEAP activity in the medium of transfected cells (mammalian two-hybrid system) [1] of 2.5 fold.

B1: GROUP I RNA aptamer (ssRNA)
RNA: GGGAGAGCGGAAGCGUGCUGGGCUAGAAUAAUAAUAAGAAAACCAGUACUUUCGUGUCCCGGGAGGGUGCAUAACCCAGAGGUCGAUGGAUCC
modifications: 2'-F pyrimidines (C and U)
Work on B1 yielded a Kd [2] of 0.313 nM and a Kd [3] of 3.22 nM.

B2: Mutant GROUP 1-2 (m19-2) (ssRNA)
RNA: GUGCUGGGCUAGGGCGGCGGCGGGAAAACCAGUAC
modifications: 2'-F pyrimidines (C and U)
For B2, the Kd [4] was 420 nM and the Kd [5] was 630 nM.

B3: Loop only (ssRNA)
RNA: GGCUAGAAUAAUAAUAAGAAAAC
modifications: 2'-F pyrimidines (C and U)
With B3 the Kd [5] was 1100 nM.

B4: Truncated GROUP 1-2 (19-2) (ssRNA)
RNA: GUGCUGGGCUAGAAUAAUAAUAAGAAAACCAGUAC
modifications: 2'-F pyrimidines (C and U)
B4 was tested, and the Kd [6] was 4 nM and the Kd ([5]; hairpin-loop (predicted)) was 590 nM.

B5: Truncated GROUP 1-1 (19-1, YJ-1) (ssRNA)
RNA: GCGGAAGCGUGCUGGGCUAGAAUAAUAAUAAGAAAACCAGUACUUUCGU
modifications: 2'-F pyrimidines (C and U)
Work on B5 yielded a Kd [6] of 0.77 nM and a Kd ([5]; hairpin-loop (predicted)) of 600 nM.

B6: Mutant GROUP 1-1 (m19-1, mutant YJ-1) (ssRNA)
RNA: GCGGAAGCGUGCUGGGCUAGGGCGGCGGCGGGAAAACCAGUACUUUCGU
modifications: 2'-F pyrimidines (C and U)
In the case of B6, the Kd [4] is reported as 1300 nM and the Kd [5] is reported as 790 nM.
